Target: the molecule itself
Assay: split reporter (BiFC, NanoBiT); PathHunter enzyme fragment complementation in the c-MET homodimer U-2 OS cell line; recombinant human HGF serially diluted; 6 h at room temperature; lower levels with bivalent c-MET mAb, even lower levels with JNJ-61186372 and monovalent c-MET BsAbs

B1: c-MET(1–960) C-terminally fused to a complementary inactive fragment of β-galactosidase (receptor, UniProt P08581 25-960, looked up)
chain: ECKEALAKSEMNVNMKYQLPNFTAETPIQNVILHEHHIFLGATNYIYVLNEEDLQKVAEYKTGPVLEHPDCFPCQDCSSKANLSGGVWKDNINMALVVDTYYDDQLISCGSVNRGTCQRHVFPHNHTADIQSEVHCIFSPQIEEPSQCPDCVVSALGAKVLSSVKDRFINFFVGNTINSSYFPDHPLHSISVRRLKETKDGFMFLTDQSYIDVLPEFRDSYPIKYVHAFESNNFIYFLTVQRETLDAQTFHTRIIRFCSINSGLHSYMEMPLECILTEKRKKRSTKKEVFNILQAAYVSKPGAQLARQIGASLNDDILFGVFAQSKPDSAEPMDRSAMCAFPIKYVNDFFNKIVNKNNVRCLQHFYGPNHEHCFNRTLLRNSSGCEARRDEYRTEFTTALQRVDLFMGQFSEVLLTSISTFIKGDLTIANLGTSEGRFMQVVVSRSGPSTPHVNFLLDSHPVSPEVIVEHTLNQNGYTLVITGKKITKIPLNGLGCRHFQSCSQCLSAPPFVQCGWCHDKCVRSEECLSGTWTQQICLPAIYKVFPNSAPLEGGTRLTICGWDFGFRRNNKFDLKKTRVLLGNESCTLTLSESTMNTLKCTVGPAMNKHFNMSIIISNGHGTTQYSTFSYVDPVITSISPKYGPMAGGTLLTLTGNYLNSGNSRHISIGGKTCTLKSVSNSILECYTPAQTISTEFAVKLKIDLANRETSIFSYREDPIVYEIHPTKSFISGGSTITGVGKNLNSVSVPRMVINVHEAGRNFTVACQHRSNSEIICCTTPSLQQLNLQLPLKTKAFFMLDGILSKYFDLIYVHNPVFKPFEKPVMISMGNENVLEIKGNDIDPEAVKGEVLKVGNKSCENIHLHSEAVLCTVPNDLLKLNSELNIEWKQAISSTVLGKVIVQPDQNFTGLIAGVVSISTALLLLLGFFLWLKKRKQ
notes: signal peptide in the construct; membrane localisation of the construct was checked by flow cytometry; In the homodimer cell line two copies carry the two complementary β-gal fragments; also called hepatocyte growth factor receptor; HGF receptor; source: U-2 OS cells, stably transfected, on cells
How did the “EC50 of HGF for c-MET homodimerization” value turn out when B1 was run?
Its value is 3.21 nM.
